Like-named read-outs stand apart in the source and are kept apart here.
Experiments:
Assay in all cases: two-hybrid
[1] = target: cAMP-binding transcriptional regulator Clr (Sinorhizobium meliloti)
Leu zipper (Zip) [2] = target: Leu zipper (Zip)
Leu zipper (Zip) [3] = target: Leu zipper (Zip); remark: listed apart in the source

Leu zipper (Zip), sequence (P03069 whole entry): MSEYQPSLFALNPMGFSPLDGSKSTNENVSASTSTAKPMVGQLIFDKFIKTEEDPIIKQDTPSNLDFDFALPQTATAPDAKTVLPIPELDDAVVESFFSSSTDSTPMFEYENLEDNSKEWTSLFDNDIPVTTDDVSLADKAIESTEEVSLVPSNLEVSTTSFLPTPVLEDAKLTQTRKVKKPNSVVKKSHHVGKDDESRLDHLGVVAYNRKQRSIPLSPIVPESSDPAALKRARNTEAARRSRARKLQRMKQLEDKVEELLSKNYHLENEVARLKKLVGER

Substance | BACTH β-galactosidase activity [1] | BACTH β-galactosidase activity (Leu zipper (Zip) [2]) | BACTH β-galactosidase activity (Leu zipper (Zip) [3])
LysR-type transcriptional regulator Smc01817 (natural protein) | 460 MU | – | –
Leu zipper (Zip) (domain or fragment) | – | 1370 Miller-Units | 1640 Miller-Units

— article doi:10.1101/2024.01.22.576614
